Here are results for 4 sequences from the supplement of paper PMC5998384.

Data set [1] concerns HeLa Kyoto. Nature of the data set: melting temperature (median over replicates), in situ; higher = more thermally stable.
Data set [2] deals with HeLa Kyoto. Nature of the data set: thermal stability score vs G1/S (z-score of summed log2 fold changes over temperatures); higher = more thermally stable than in G1/S.
In data set [3] the test system is HeLa Kyoto. Nature of the data set: solubility change mitosis vs G1/S (difference of NP-40 vs SDS log2 ratios) (log2 ratio difference); higher = more soluble in mitosis.
For data set [4], the system named is HeLa Kyoto. In words: solubility in G1/S (NP-40 vs SDS abundance) (log2 ratio); higher = more soluble. The note with it: cell cycle stage: G1/S.
Where [5] appears, read: cell cycle stage: early G1 (4.5 h after nocodazole release).
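For melting temperature (median over replicates), in situ in this document: HeLa Kyoto cells synchronized by double thymidine or nocodazole block, proteins quantified by TMT10plex mass spectrometry, three independent biological replicates.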
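For solubility change mitosis vs G1/S (difference of NP-40 vs SDS log2 ratios) in this document: synchronized HeLa Kyoto cells (double thymidine block for G1/S, nocodazole release for mitosis), protein amounts in NP-40 versus SDS lysates quantified by mass spectrometry, three biological replicates.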
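For solubility in G1/S (NP-40 vs SDS abundance) in this document: HeLa Kyoto cells arrested at G1/S by double thymidine block, proteins quantified by TMT10plex mass spectrometry in mild NP-40 versus SDS extracts, three biological replicates.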
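For thermal stability score vs G1/S (z-score of summed log2 fold changes over temperatures) in this document: synchronized HeLa Kyoto cells, proteins quantified by TMT10plex mass spectrometry, three biological replicates, mitosis taken 0.5 h after nocodazole release, G1/S directly after double thymidine block.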

On to “MGSKGVYQYHWQSHNVKHSGVDDMVLLSKITENSIVENLKKRYMDDYIFTYIGSVLISVNPFKQMPYFGEKEIEMYQGAAQYENPPHIYALADNMYRNMIIDRENQCVIISGESGAGKTVAAKYIMSYISRVSGGGTKVQHVKDIILQSNPLLEAFGNAKTVRNNNSSRFGKYFEIQFSPGGEPDGGKISNFLLEKSRVVMRNPGERSFHIFYQLIEGASAEQKHSLGITSMDYYYYLSLSGSYKVDDIDDRREFQETLHAMNVIGIFAEEQTLVLQIVAGILHLGNISFKEVGNYAAVESEEFLAFPAYLLGINQDRLKEKLTSRQMDSKWGGKSESIHVTLNVEQACYTRDALAKALHARVFDFLVDSINKAMEKDHEEYNIGVLDIYGFEIFQKNGFEQFCINFVNEKLQQIFIELTLKAEQEEYVQEGIRWTPIEYFNNKIVCDLIENKVNPPGIMSILDDVCATMHAVGEGADQTLLQKLQMQIGSHEHFNSWNQGFIIHHYAGKVSYDMDGFCERNRDVLFMDLIELMQSSELPFIKSLFPENLQADKKGRPTTAGSKIKKQANDLVSTLMKCTPHYIRCIKPNETKKPRDWEESRVKHQVEYLGLKENIRVRRAGYAYRRIFQKFLQRYAILTKATWPSWQGEEKQGVLHLLQSVNMDSDQFQLGRSKVFIKAPESLFLLEEMRERKYDGYARVIQKSWRKFVARKKYVQMREEASDLLLNKKERRRNSINRNFIGDYIGMEEHPELQQFVGKREKIDFADTVTKYDRRFKGVKRDLLLTPKCLYLIGREKVKQGPDKGLVKEVLKRKIEIERILSVSLSTMQDDIFILHEQEYDSLLESVFKTEFLSLLAKRYEEKTQKQLPLKFSNTLELKLKKENWGPWSAGGSRQVQFHQGFGDLAVLKPSNKVLQVSIGPGLPKNSRPTRRNTTQNTGYSSGTQNANYPVRAAPPPPGYHQNGVIRNQYVPYPHAPGSQRSNQKSLYTSMARPPLPRQQSTSSDRVSQTPESLDFLKVPDQGAAGVRRQTTSRPPPAGGRPKPQPKPKPQVPQCKALYAYDAQDTDELSFNANDIIDIIKEDPSGWWTGRLRGKQGLFPNNYVTKI [MYO1E]”, for which the melting temperature was determined as 49.6 °C with HeLa Kyoto [1] (cell cycle stage: G1/S) and 49.5 °C with HeLa Kyoto [1] (cell cycle stage: mitosis). The thermal stability score is -0.0451 in the data set with HeLa Kyoto [2] (setting [5]) and 1.13 in the data set on HeLa Kyoto [2] (cell cycle stage: mitosis). Also, in the data set on HeLa Kyoto [3], the “solubility change mitosis (log2)” value is -0.207. The “solubility in G1/S (log2)” value with HeLa Kyoto [4] was -0.131.
For “MGSRASTLLRDEELEEIKKETGFSHSQITRLYSRFTSLDKGENGTLSREDFQRIPELAINPLGDRIINAFFPEGEDQVNFRGFMRTLAHFRPIEDNEKSKDVNGPEPLNSRSNKLHFAFRLYDLDKDEKISRDELLQVLRMMVGVNISDEQLGSIADRTIQEADQDGDSAISFTEFVKVLEKVDVEQKMSIRFLH [CHP1]”, the melting temperature with HeLa Kyoto [1] (cell cycle stage: G1/S) was found to be 51.8 °C; in the data set on HeLa Kyoto [1] (cell cycle stage: mitosis), 52.6 °C. Moreover, the thermal stability score in the data set on HeLa Kyoto [2] (setting [5]) was -0.997; with HeLa Kyoto [2] (cell cycle stage: mitosis) it was 0.839. Further, the “solubility change mitosis (log2)” value in the data set with HeLa Kyoto [3] was -0.016. Moreover, the “solubility in G1/S (log2)” value in the data set on HeLa Kyoto [4] worked out at 0.256.
As to “MGSRDHLFKVLVVGDAAVGKTSLVQRYSQDSFSKHYKSTVGVDFALKVLQWSDYEIVRLQLWDIAGQERFTSMTRLYYRDASACVIMFDVTNATTFSNSQRWKQDLDSKLTLPNGEPVPCLLLANKCDLSPWAVSRDQIDRFSKENGFTGWTETSVKENKNINEAMRVLIEKMMRNSTEDIMSLSTQGDYINLQTKSSSWSCC [RAB29]”, the melting temperature was determined as 53 °C in the data set with HeLa Kyoto [1] (cell cycle stage: G1/S) and 52.9 °C in the data set with HeLa Kyoto [1] (cell cycle stage: mitosis). The thermal stability score is -0.342 in the data set on HeLa Kyoto [2] (setting [5]) and -0.372 with HeLa Kyoto [2] (cell cycle stage: mitosis). Further, in the data set on HeLa Kyoto [3], the “solubility change mitosis (log2)” value is -0.119. In addition, in the data set with HeLa Kyoto [4], the “solubility in G1/S (log2)” value is 0.0397.
As for “MGSSKKHRGEKEAAGTTAAAGTGGATEQPPRHREHKKHKHRSGGSGGSGGERRKRSRERGGERGSGRRGAEAEARSSTHGRERSQAEPSERRVKREKRDDGYEAAASSKTSSGDASSLSIEETNKLRAKLGLKPLEVNAIKKEAGTKEEPVTADVINPMALRQREELREKLAAAKEKRLLNQKLGKIKTLGEDDPWLDDTAAWIERSRQLQKEKDLAEKRAKLLEEMDQEFGVSTLVEEEFGQRRQDLYSARDLQGLTVEHAIDSFREGETMILTLKDKGVLQEEEDVLVNVNLVDKERAEKNVELRKKKPDYLPYAEDESVDDLAQQKPRSILSKYDEELEGERPHSFRLEQGGTADGLRERELEEIRAKLRLQAQSLSTVGPRLASEYLTPEEMVTFKKTKRRVKKIRKKEKEVVVRADDLLPLGDQTQDGDFGSRLRGRGRRRVSEVEEEKEPVPQPLPSDDTRVENMDISDEEEGGAPPPGSPQVLEEDEAELELQKQLEKGRRLRQLQQLQQLRDSGEKVVEIVKKLESRQRGWEEDEDPERKGAIVFNATSEFCRTLGEIPTYGLAGNREEQEELMDFERDEERSANGGSESDGEENIGWSTVNLDEEKQQQDFSASSTTILDEEPIVNRGLAAALLLCQNKGLLETTVQKVARVKAPNKSLPSAVYCIEDKMAIDDKYSRREEYRGFTQDFKEKDGYKPDVKIEYVDETGRKLTPKEAFRQLSHRFHGKGSGKMKTERRMKKLDEEALLKKMSSSDTPLGTVALLQEKQKAQKTPYIVLSGSGKSMNANTITK [SART1]”, the values for the melting temperature with HeLa Kyoto [1] (cell cycle stage: G1/S) and with HeLa Kyoto [1] (cell cycle stage: mitosis) were 50.8 °C and 51.6 °C, respectively. Further, the thermal stability score came out at 0.893 with HeLa Kyoto [2] (setting [5]) and 3.51 in the data set with HeLa Kyoto [2] (cell cycle stage: mitosis). The “solubility change mitosis (log2)” value with HeLa Kyoto [3] worked out at 0.448. In the data set with HeLa Kyoto [4], the “solubility in G1/S (log2)” value is -0.654.
